# Measurements as given in PMC7580981 (2020).
# Tests used:
# [1] = target: two polymerase subunits (PA and PB1) of IBV polymerase (Pol2): PA-His, PB1 (influenza B virus); assay: SPR
# [2] = target: IBV polymerase trimeric complex (Pol3): PA-His, PB1, PB2 (influenza B virus); assay: SPR
Binder,Kd [1] [µM],Kd [2] [µM]
"human ANP32A, purified (GST cleaved) (natural protein) MEMGRRIHLELRNRTPSDVKELVLDNSRSNEGKLEGLTDEFEELEFLSTINVGLTSIANLPKLNKLKKLELSDNRVSGGLEVLAEKCPNLTHLNLSGNKIKDLSTIEPLKKLENLKSLDLFNCEVTNLNDYRENVFKLLPQLTYLDGYDRDDKEAPDSDAEGYVEGLDDEEEDEDEEEYDEDAQVVEDEEDEDEEEEGEEEDVSGEEEEDEEGYNDGEVDDEEDEEELGEEERGQKRKREPEDEGEDDD",> 1000,–
"human ANP32A C terminal truncated (huANP32A_165T), purified (GST cleaved) (domain or fragment) MEMGRRIHLELRNRTPSDVKELVLDNSRSNEGKLEGLTDEFEELEFLSTINVGLTSIANLPKLNKLKKLELSDNRVSGGLEVLAEKCPNLTHLNLSGNKIKDLSTIEPLKKLENLKSLDLFNCEVTNLNDYRENVFKLLPQLTYLDGYDRDDKEAPDSDAEGYVE",–,> 1000
